Reference: PMC10540216, “Activity Guided Azide-methyllysine Photo-trapping for Substrate Profiling of Lysine Demethylases” (Journal of the American Chemical Society, 2023)

Test system: KDM4A-I71AzF
Test: CASI: photo-crosslinking with HEK293T cell extracts, StrepTactin enrichment and LC-MS/MS proteomics;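 note: lysates from HEK293T cells pretreated with a KDM4 inhibitor to raise proteome methylation, affinity-purified after ±UV, gel-resolved, trypsin-digested, with exclusive unique peptides per protein averaged per condition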
Assay type: binding, human
Settings: sheet "Final results but with 0.01"

Molecule	Fold change (+UV/-UV)
AMOT_HUMAN (protein, UniProt Q4VCS5 1-1084, looked up) Angiomotin: MRNSEEQPSGGTTVLQRLLQEQLRYGNPSENRSLLAIHQQATGNGPPFPSGSGNPGPQSDVLSPQDHHQQLVAHAARQEPQGQEIQSENLIMEKQLSPRMQNNEELPTYEEAKVQSQYFRGQQHASVGAAFYVTGVTNQKMRTEGRPSVQRLNPGKMHQDEGLRDLKQGHVRSLSERLMQMSLATSGVKAHPPVTSAPLSPPQPNDLYKNPTSSSEFYKAQGPLPNQHSLKGMEHRGPPPEYPFKGMPPQSVVCKPQEPGHFYSEHRLNQPGRTEGQLMRYQHPPEYGAARPAQDISLPLSARNSQPHSPTSSLTSGGSLPLLQSPPSTRLSPARHPLVPNQGDHSAHLPRPQQHFLPNQAHQGDHYRLSQPGLSQQQQQQQQQHHHHHHHQQQQQQQPQQQPGEAYSAMPRAQPSSASYQPVPADPFAIVSRAQQMVEILSDENRNLRQELEGCYEKVARLQKVETEIQRVSEAYENLVKSSSKREALEKAMRNKLEGEIRRMHDFNRDLRERLETANKQLAEKEYEGSEDTRKTISQLFAKNKESQREKEKLEAELATARSTNEDQRRHIEIRDQALSNAQAKVVKLEEELKKKQVYVDKVEKMQQALVQLQAACEKREQLEHRLRTRLERELESLRIQQRQGNCQPTNVSEYNAAALMELLREKEERILALEADMTKWEQKYLEENVMRHFALDAAATVAAQRDTTVISHSPNTSYDTALEARIQKEEEEILMANKRCLDMEGRIKTLHAQIIEKDAMIKVLQQRSRKEPSKTEQLSCMRPAKSLMSISNAGSGLLSHSSTLTGSPIMEEKRDDKSWKGSLGILLGGDYRAEYVPSTPSPVPPSTPLLSAHSKTGSRDCSTQTERGTESNKTAAVAPISVPAPVAAAATAAAITATAATITTTMVAAAPVAVAAAAAPAAAAAPSPATAAATAAAVSPAAAGQIPAAASVASAAAVAPSAAAAAAVQVAPAAPAPVPAPALVPVPAPAAAQASAPAQTQAPTSAPAVAPTPAPTPTPAVAQAEVPASPATGPGPHRLSIPSLTCNPDKTDGPVFHSNTLERKTPIQILGQEPDAEMVEYLI	1.125
SMC3_HUMAN (protein, UniProt Q9UQE7 1-1217, looked up) Structural maintenance of …: MYIKQVIIQGFRSYRDQTIVDPFSSKHNVIVGRNGSGKSNFFYAIQFVLSDEFSHLRPEQRLALLHEGTGPRVISAFVEIIFDNSDNRLPIDKEEVSLRRVIGAKKDQYFLDKKMVTKNDVMNLLESAGFSRSNPYYIVKQGKINQMATAPDSQRLKLLREVAGTRVYDERKEESISLMKETEGKREKINELLKYIEERLHTLEEEKEELAQYQKWDKMRRALEYTIYNQELNETRAKLDELSAKRETSGEKSRQLRDAQQDARDKMEDIERQVRELKTKISAMKEEKEQLSAERQEQIKQRTKLELKAKDLQDELAGNSEQRKRLLKERQKLLEKIEEKQKELAETEPKFNSVKEKEERGIARLAQATQERTDLYAKQGRGSQFTSKEERDKWIKKELKSLDQAINDKKRQIAAIHKDLEDTEANKEKNLEQYNKLDQDLNEVKARVEELDRKYYEVKNKKDELQSERNYLWREENAEQQALAAKREDLEKKQQLLRAATGKAILNGIDSINKVLDHFRRKGINQHVQNGYHGIVMNNFECEPAFYTCVEVTAGNRLFYHIVDSDEVSTKILMEFNKMNLPGEVTFLPLNKLDVRDTAYPETNDAIPMISKLRYNPRFDKAFKHVFGKTLICRSMEVSTQLARAFTMDCITLEGDQVSHRGALTGGYYDTRKSRLELQKDVRKAEEELGELEAKLNENLRRNIERINNEIDQLMNQMQQIETQQRKFKASRDSILSEMKMLKEKRQQSEKTFMPKQRSLQSLEASLHAMESTRESLKAELGTDLLSQLSLEDQKRVDALNDEIRQLQQENRQLLNERIKLEGIITRVETYLNENLRKRLDQVEQELNELRETEGGTVLTATTSELEAINKRVKDTMARSEDLDNSIDKTEAGIKELQKSMERWKNMEKEHMDAINHDTKELEKMTNRQGMLLKKKEECMKKIRELGSLPQEAFEKYQTLSLKQLFRKLEQCNTELKKYSHVNKKALDQFVNFSEQKEKLIKRQEELDRGYKSIMELMNVLELRKYEAIQLTFKQVSKNFSEVFQKLVPGGKATLVMKKGDVEGSQSQDEGEGSGESERGSGSQSSVPSVDQFTGVGIRVSFTGKQGEMREMQQLSGGQKSLVALALIFAIQKCDPAPFYLFDEIDQALDAQHRKAVSDMIMELAVHAQFITTTFRPELLESADKFYGVKFRNKVSHIDVITAEMAKDFVEDDTTHG	0.375
RBM33_HUMAN (protein, UniProt Q96EV2 2-1170, looked up) RNA-binding protein 33: AAALGASGGAGAGDDDFDQFDKPGAERSWRRRAADEDWDSELEDDLLGEDLLSGKKNQSDLSDEELNDDLLQSDNEDEENFSSQGVTISLNATSGMVTSFELSDNTNDQSGEQESEYEQEQGEDELVYHKSDGSELYTQEYPEEGQYEGHEAELTEDQIEYVEEPEEEQLYTDEVLDIEINEPLDEFTGGMETLELQKDIKEESDEEEEDDEESGRLRFKTERKEGTIIRLSDVTRERRNIPETLELSAEAKAALLEFEERERQHKQGRYSSRRGGRRGGPLMCRGVGDQRRESTERGRMKDHRPALLPTQPPVVPQAPPPPPPPPQQQPIRSLFQPQPLQPLLPVQHPHHPSPPQGMHMPPQLETPRMMMTPPPVTPQQPKNIHINPHFKGTVVTPVQVPLLPVPSQPRPAVGPQRFPGPPEFPQHTPGPVPNSFSQPPRLPLQDQWRAPPPPQDRDPFFLGVSGEPRFPSHLFLEQRSPPPPPPPPTLLNSSHPVPTQSPLPFTQPGPAFNQQGQQPVFPRERPVRPALQPPGPVGILHFSQPGSATTRPFIPPRQPFLPGPGQPFLPTHTQPNLQGPLHPPLPPPHQPQPQQPQQQPPPQHQPPHQPPHQPPPQHQPPPQHPPQHPPQHQHHHHHHHLSVPPPPLMPMSQPQFRPHVQTAQPQASSSRMQCPQRQGLRHNTTSQNVSKRPMQQMQPTAPRNSNLRELPIAPSHVIEMSSSRCSATPSAQVKPIVSASPPSRAVAGSRSSQGKTEVKVKPASPVAQPKEEAKTETEFPDEDEETRLYRLKIEEQKRLREEILKQKELRRQQQAGARKKELLERLAQQQQQLYAPPPPAEQEEQALSPSPTNGNPLLPFPGAQVRQNVKNRLLVKNQDVSISNVQPKTSNFVPSSANMQYQGQQMKALKHLRQTRTVPQSQTQPLHKVLPIKPADVEEPAVPQTPRVASIQGRPQDTKPGVKRTVTHRTNSGGGDGPHISSKVRVIKLSGGGGESDGFFHPEGQPQRLPQPPEVGPQPARKVTLTRGGLQQPPHLPAGPHAHSPVPPGIKSIQGIHPAKKAIMHGRGRGVAGPMGRGRLMPNKQNLRVVECKPQPCVVSVEGLSSSTTDAQLKSLLMSVGPIQSLQMLPQQRKAIAKFKEPAHALAFQQKFHRHMIDLSHINVALIVE	0.3333
SF3B2_HUMAN (protein, UniProt Q13435 1-895, looked up) Splicing factor 3B subunit 2: MATEHPEPPKAELQLPPPPPPGHYGAWAAQELQAKLAEIGAPIQGNREELVERLQSYTRQTGIVLNRPVLRGEDGDKAAPPPMSAQLPGIPMPPPPLGLPPLQPPPPPPPPPPGLGLGFPMAHPPNLGPPPPLRVGEPVALSEEERLKLAQQQAALLMQQEERAKQQGDHSLKEHELLEQQKRAAVLLEQERQQEIAKMGTPVPRPPQDMGQIGVRTPLGPRVAAPVGPVGPTPTVLPMGAPVPRPRGPPPPPGDENREMDDPSVGPKIPQALEKILQLKESRQEEMNSQQEEEEMETDARSSLGQSASETEEDTVSVSKKEKNRKRRNRKKKKKPQRVRGVSSESSGDREKDSTRSRGSDSPAADVEIEYVTEEPEIYEPNFIFFKRIFEAFKLTDDVKKEKEKEPEKLDKLENSAAPKKKGFEEEHKDSDDDSSDDEQEKKPEAPKLSKKKLRRMNRFTVAELKQLVARPDVVEMHDVTAQDPKLLVHLKATRNSVPVPRHWCFKRKYLQGKRGIEKPPFELPDFIKRTGIQEMREALQEKEEQKTMKSKMREKVRPKMGKIDIDYQKLHDAFFKWQTKPKLTIHGDLYYEGKEFETRLKEKKPGDLSDELRISLGMPVGPNAHKVPPPWLIAMQRYGPPPSYPNLKIPGLNSPIPESCSFGYHAGGWGKPPVDETGKPLYGDVFGTNAAEFQTKTEEEEIDRTPWGELEPSDEESSEEEEEEESDEDKPDETGFITPADSGLITPGGFSSVPAGMETPELIELRKKKIEEAMDGSETPQLFTVLPEKRTATVGGAMMGSTHIYDMSTVMSRKGPAPELQGVEVALAPEELELDPMAMTQKYEEHVREQQAQVEKEDFSDMVAEHAAKQKQKKRKAQPQDSRGGSKKYKEFKF	0.7273
